{"source": "patent US8148119B2", "about": "“Hydroxylase gene and use thereof” (Microbiopharm Japan Co., Ltd., priority 2006, dated 2012)", "molecules": {"B1": {"name": "P450SU-1: cytochrome P450 derived from actinomycete Streptomyces griseolus ATCC 11796, reported to hydroxylate vitamin D3 (protein, UniProt P18326 2-406, looked up)", "Vitamin D3 dihydroxylase": "TDTATTPQTTDAPAFPSNRSCPYQLPDGYAQLRDTPGPLHRVTLYDGRQAWVVTKHEAARKLLGDPRLSSNRTDDNFPATSPRFEAVRESPQAFIGLDPPEHGTRRRMTISEFTVKRIKGMRPEVEEVVHGFLDEMLAAGPTADLVSQFALPVPSMVICRLLGVPYADHEFFQDASKRLVQSTDAQSALTARNDLAGYLDGLITQFQTEPGAGLVGALVADQLANGEIDREELISTAMLLLIAGHETTASMTSLSVITLLDHPEQYAALRADRSLVPGAVEELLRYLAIADIAGGRVATADIEVEGHLIRAGEGVIVVNSIANRDGTVYEDPDALDIHRSARHHLAFGFGVHQCLGQNLARLELEVILNALMDRVPTLRLAVPVEQLVLRPGTTIQGVNELPVTW"}, "B2": {"name": "VDH: hydroxylase of vitamin D or the like from Pseudonocardia autotrophica, cytochrome P450, amino acid sequence ID No. 2 (protein, listed as Pseudonocardia autotrophica)", "chain": "MALTTTGTEQHDLFSGTFWQNPHPAYAALRAEDPVRKLALPDGPVWLLTRYADVREAFVDPRLSKDWRHTLPEDQRADMPATPTPMMILMDPPDHTRLRKLVGRSFTVRRMNELEPRITEIADGLLAGLPTDGPVDLMREYAFQIPVQVICELLGVPAEDRDDFSAWSSVLVDDSPADDKNAAMGKLHGYLSDLLERKRTEPDDALLSSLLAVSDEDGDRLSQEELVAMAMLLLIAGHETTVNLIGNGVLALLTHPDQRKLLAEDPSLISSAVEEFLRFDSPVSQAPIRFTAEDVTYSGVTIPAGEMVMLGLAAANRDADWMPEPDRLDITRDASGGVFFGHGIHFCLGAQLARLEGRVAIGRLFADRPELALAVGLDELVYRESTLVRGLSRMPVTMGPRSA"}, "B3": {"name": "Human CYP27A1: human cytochrome P450 known to have hydroxylation activity at 25-position of vitamin D3 (protein, UniProt Q02318 34-531, looked up)", "Sterol 26-hydroxylase, …": "ALPSDKATGAPGAGPGVRRRQRSLEEIPRLGQLRFFFQLFVQGYALQLHQLQVLYKAKYGPMWMSYLGPQMHVNLASAPLLEQVMRQEGKYPVRNDMELWKEHRDQHDLTYGPFTTEGHHWYQLRQALNQRLLKPAEAALYTDAFNEVIDDFMTRLDQLRAESASGNQVSDMAQLFYYFALEAICYILFEKRIGCLQRSIPEDTVTFVRSIGLMFQNSLYATFLPKWTRPVLPFWKRYLDGWNAIFSFGKKLIDEKLEDMEAQLQAAGPDGIQVSGYLHFLLASGQLSPREAMGSLPELLMAGVDTTSNTLTWALYHLSKDPEIQEALHEEVVGVVPAGQVPQHKDFAHMPLLKAVLKETLRLYPVVPTNSRIIEKEIEVDGFLFPKNTQFVFCHYVVSRDPTAFSEPESFQPHRWLRNSQPATPRIQHPFGSVPFGYGVRACLGRRIAELEMQLLLARLIQKYKVVLAPETGELKSVARIVLVPNKKVGLQFLQRQC"}}, "key": {"[1]": {"conditions": "cited from earlier work"}, "VDH": {"target": "T1, VDH (Pseudonocardia autotrophica, UniProt C4B644)", "T1 construct": "there was no mutation of the VDH gene and the VDH gene was inserted in the designated site; made in house; host or cells: Escherichia coli BL21(DE3), cell-free extract", "T1 sequence (C4B644 2-403)": "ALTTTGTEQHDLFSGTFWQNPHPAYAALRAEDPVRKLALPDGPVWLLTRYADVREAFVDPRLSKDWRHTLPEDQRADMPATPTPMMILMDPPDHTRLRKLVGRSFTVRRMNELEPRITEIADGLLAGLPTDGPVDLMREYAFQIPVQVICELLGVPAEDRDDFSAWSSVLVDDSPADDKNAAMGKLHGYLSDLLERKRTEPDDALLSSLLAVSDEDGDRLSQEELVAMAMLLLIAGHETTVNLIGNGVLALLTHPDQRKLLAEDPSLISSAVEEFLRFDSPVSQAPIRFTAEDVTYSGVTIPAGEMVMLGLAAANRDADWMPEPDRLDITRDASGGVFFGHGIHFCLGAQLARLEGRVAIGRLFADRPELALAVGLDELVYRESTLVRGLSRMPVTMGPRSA", "experiment": "Reduced-CO difference spectral analysis, VDH expression in Escherichia coli BL21(DE3) transformants", "experimental": "First, the cell suspension obtained by the method previously described was subjected to cell disruption at 4° C. using 0.1 mm glass beads by a cell disruptor, Multi-beads shocker (manufactured by Yasui Kikai Corporation). In the cell disruption, ten cycles of 30-second shaking at 2500 rpm and a 30-second break were conducted. The cell-disrupted solution was centrifuged at 12000 rpm for 10 minutes to thereby obtain a cell-free extract. 700 μl of the cell-free extract was transferred into each of two test tubes with caps and carbon monoxide was purged into one of the tubes. Then, a small amount of sodium hydrosulfite was added to the cell-free extract in both of the tubes. Taking the absorption spectrum at from 400 nm to 500 nm of the sample without the purge of carbon monoxide as the baseline level, the absorption spectrum at from 400 to 500 nm of the sample purged with carbon monoxide was scanned using a spectrophotometer (U-3210 SpectrophotoMeter manufactured by HITACHI, Ltd.).\nFirst, the cell suspension of transformed Escherichia coli BL21(DE3)/pVDH-thcCD obtained by the method previously described was subjected to cell disruption at 4° C. using 0.1 mm glass beads by a cell disruptor, Multi-beads shocker (manufactured by Yasui Kikai Corporation). In the cell disruption, ten cycles of 30-second shaking at 2500 rpm and a 30-second break were conducted. […]"}, "[2]": {"experiment": "VD3 conversion in reconstituted system (cell-free extract or purified VDH plus redox partner)", "assay_type": "biochemical"}, "[3]": {"conditions": "cited from earlier work", "remark": "listed apart in the source"}}, "note": "“Also recorded” adds a separate entry of the source. Read-outs that look alike come from different tables or passages of the source."}
{"molecule": "B1", "values": [{"measurement": "Hydroxylation of vitamin D3 to 25-hydroxy vitamin D3 and of 25-hydroxy vitamin D3 to 1α,25-hydroxy vitamin D3", "setting": "[1]; reported by Sawada et al. 2004", "result": "weak activity"}]}
{"molecule": "B2", "values": [{"measurement": "Estimated concentration of VDH per culture", "setting": "VDH; Escherichia coli BL21(DE3)/pVDH-camAB", "result": 113, "unit": "nM"}, {"measurement": "VDH expression per culture fluid", "setting": "VDH; Escherichia coli BL21(DE3)/pVDH-thcCD", "result": 258, "unit": "nM"}, {"measurement": "Hydroxides of VD3 detected by HPLC", "setting": "[2]; ferredoxin and ferredoxin reductase derived from spinach, 10 μM VD3, 30° C.", "result": "a reaction proceeds; also recorded: converting VD3 to HVD, DHVD and THVD"}, {"measurement": "Reaction in reconstituted system with putidaredoxin and putidaredoxin reductase", "setting": "[2]; redox partner derived from Pseudomonas putida", "result": "electron transfer reaction did not proceed"}]}
{"molecule": "B3", "values": [{"measurement": "Km", "setting": "[1]; literature values (Sawada et al. 2004), read-out: Km for VD3", "result": 3.2, "unit": "µM"}, {"measurement": "Vmax for VD3", "setting": "[1]; literature values", "result": "270 mmol/min/mol of P450"}, {"measurement": "Km", "setting": "[3]; literature values (Sawada et al.; Uchida et al.), read-out: Km for 25-OH VD3", "result": 3.5, "unit": "µM"}, {"measurement": "Vmax for 25-OH VD3", "setting": "[3]; literature values", "result": "21 mmol/min/mol of P450"}]}
